{"source": "paper PMC6021111", "about": "“Murine leukemia virus p12 tethers the capsid-containing pre-integration complex to chromatin by binding directly to host nucleosomes in mitosis” (PLoS Pathogens, 2018)", "molecules": {"B1": {"name": "GST-p12_WT: N-terminally GST-tagged Mo-MLV p12 (protein)", "chain": "PALTPSLGAKPKPQVLSDSGGPLIDLLTEDPPPYRDPRPPPSDRDGNGGEATPAGEAPDPSPMASRLRGRREPPVADSTTSQAF", "modifications": "left off: GST, N-terminal, kept", "notes": "N-terminally GST-tagged Mo-MLV p12"}}, "key": {"[1]": {"tested_on": "double- and single-stranded calf thymus DNA", "test": "Pull-down with DNA-coated cellulose beads", "assay_type": "binding", "conditions": "293T lysates", "protocol": "GST-p12 and IN-HA were expressed in 293T cells from pCAGGS/GST and pCMV4/HA-derived plasmids respectively, by transient transfection using Turbofect (Thermo Fisher Scientific). Approximately 24 h after transfection, cells were changed into fresh media and incubated overnight at 37°C. Cells were then washed and lysed in 20 mM Tris-HCl pH 8.0, 300 mM NaCl, 1 mM EDTA, 10% Glycerol, 1% Triton X-100, protease inhibitors. Lysis was facilitated by passing the lysates through a 19-gauge needle x7 and sonication, x7 pulses, 30 s ON and 30 s OFF, in an ice bath (Decon FS100). After sonication, the lysates were supplemented with 4 mM MgCl2 and 1 mM DTT, and incubated for a further 1 h at 4°C. The lysates were then clarified by centrifugation and diluted 1:3 in 20 mM Tris-HCl pH 8.0, 10% glycerol, 4 mM MgCl2 and 1 mM DTT. The lysates were then normalised based on total protein concentration using the Bradford protein assay (Bio-Rad). 0.7 ml aliquots of lysates at 0.7 mg/ml were incubated with calf thymus DNA-coated cellulose beads (100 μl/reaction of a 50% slurry) (Sigma) for 1 h at 4°C with end-over-end rotation. The beads were then washed three times in 20 mM Tris pH 8.0, 100 mM NaCl, 0.33 mM EDTA, 10% Glycerol, 0.33% Triton X-100, 4 mM MgCl2 and 1 mM DTT and re-suspended in 50 μl of x2 protein loading dye for SDS-PAGE and immunoblotting."}, "GST-p12_WT": {"tested_on": "GST-p12_WT", "test": "SILAC-MS of proteins enriched with GST-p12_WT relative to GST", "assay_type": "binding, Mo-MLV", "conditions": "log2(H/L) >2.58 SDs from mean", "excerpt": "To test whether GST-p12 was acting like the p12 region of Gag, we used a global proteomic approach based on stable isotope labelling by amino acids in cell culture (SILAC)-mass spectrometry (MS) to look for host proteins that interact with GST-p12 [35, 36]. A schematic diagram of the workflow is illustrated in Fig 4A. Briefly, GST, GST-p12_mut14 and GST-p12_WT were transiently-expressed in 293T cells cultured in light (R0/K0), medium (R6/K4) and heavy (R10/K8) SILAC media, respectively. Next, lysates of nocodazole treated transfected cells were prepared, normalised and used for parallel pull-down assays with glutathione-sepharose beads. The eluates from the beads were then pooled in a 1:1:1 ratio and subjected to LC-MS/MS analysis. The experiment was performed using biological replicates to test reproducibility of the mass-spec hits. The pull-down assays for this experiment were performed using mitotic cell lysates to facilitate identification of any potential chromatin interactions that were previously missed.\nAfter removal of obvious contaminants (e.g. keratin) and non-quantified hits, 948 and 879 proteins were identified in replicates 1 and 2 (R1 and R2) of the experiment respectively (the false discovery rate (FDR) was set at 5%). To select proteins enriched in the heavy-labelled (H) GST-p12_WT sample relative to the light-labelled (L) GST sample, we compared the log2(H/L) silac ratios of the mass-spectrometry hits. When plotted as a frequency distribution, the log2(H/L) ratios of each replicate fitted well to a normal distribution curve (R^2 ≥ 0.98), allowing the mean and standard deviation to be accurately estimated (Fig 4B). In this experiment, contaminants/non-specifically bound cellular proteins were assumed to cluster around the mean of the distribution. […] Twenty one such proteins were identified in R1 and 22 identified in R2 (Fig 4B Venn diagram). […] These proteins were then ranked based on normalised abundance in the group. In mass-spectrometry analysis, larger proteins are in general assigned higher scores. Therefore, to control for protein size, we divided the number of peptide spectral matches identified for each protein with its length and then normalised the values across the group (Fig 4C and 4D). When ranked this way, the clathrin heavy chain (CLTC), clathrin interactor 1 (CLINT1) and NEDD4-like E3 ubiquitin ligase (WWP2) were identified as the top three hits. […] The function of clathrin in MLV infection is unclear. […] Thus, clathrin binding may be relevant to the early stages of MLV replication and should be investigated further.\n(§1) For SILAC-MS experiments, 293T cells were grown is media containing light (R0K0, ^12C-Arginine and ^12C-Lysine), medium (R6K4, ^13C-Arginine and Lysine-4,4,5,5-d4) or heavy (R10K8, ^13C+^15N-Arginine and ^13C+^15N-Lysine) versions of L-Arginine and L-Lysine amino acids (Pierce) for a minimum of 6 doublings before transient expression of GST-p12 proteins. After performing the glutathione-sepharose pull-down assays equivalent volumes of the beads eluates were pooled and submitted to the Bristol University Proteomics Facility for RP nano-LC-MS/MS analysis. This analysis was performed on an LTQ-Orbitrap Velos mass spectrometer in line with a Dionex Ultimate 3000 nanoHPLC system as described in [53].\nSupplementary file ppat.1007117.s005.xlsx: S1 Table Results from the first SILAC-MS analysis. GST, Mo-MLV GST-p12_mut14 or GST-p12_WT were transiently-expressed in 293T cells cultured in light (R0/K0), medium (R6/K4) and heavy (R10/K8) SILAC media, respectively. Mitotic cell lysates were subsequently used for glutathione-sepharose bead pull-down assays. Bead eluates were pooled in a 1:1:1 ratio and then analysed by LC-MS/MS. […] (XLSX) Click here for additional data file."}, "[2]": {"tested_on": "cellular proteins of mitotic 293T cells", "test": "SILAC-MS of GST-p12_WT relative to GST-p12_mut14", "assay_type": "binding", "conditions": "log2(H/M) >2.58 SDs from mean in both replicates", "protocol": "as §1\nSupplementary file ppat.1007117.s002.tif: S2 Fig SILAC results showing no significant difference in protein complexes of Mo-MLV GST-p12_mut14 compared to GST-p12_WT. (Links to Fig 4). GST, Mo-MLV GST-p12_mut14 or GST-p12_WT were transiently-expressed in 293T cells cultured in light (L), medium (M) or heavy (H) SILAC media, respectively. GST-protein complexes were precipitated from mitotic cell lysates and analysed by LC-MS/MS. (A) To identify proteins enriched in the GST-p12_WT (H) sample relative to the GST-p12_mut14 (M) sample, log2(H/M) silac ratios of each set of MS hits (FDR <5%) from replicates (R1 and R2) were plotted as a frequency distribution. […]"}}, "data": [{"molecule": "B1", "values": [{"measurement": "binding to DNA-coated beads", "setting": "[1]", "result": "no binding to DNA was observed"}, {"measurement": "number of proteins significantly enriched vs GST in both replicates", "setting": "GST-p12_WT; R1 and R2", "result": "seven"}, {"measurement": "number of proteins significantly enriched vs GST", "setting": "GST-p12_WT; replicate 1", "result": "Twenty one"}, {"measurement": "number of proteins significantly enriched vs GST", "setting": "GST-p12_WT; replicate 2", "result": 22, "unit": "proteins"}, {"measurement": "proteins significantly enriched vs GST-p12_mut14", "setting": "[2]", "result": "no proteins that passed the criteria for significant enrichment"}]}]}
